Data published in the Immune Epitope Database (IEDB).
Values belong to the sequence of their own block, whether it stands above or below them.

Columns and labels:
HLA-C*12:03 = assay: IEDB peptide-MHC binding, purified MHC/direct/fluorescence; filed as Kd, often an IC50 or EC50 that approximates it; ≥ and ≤ were set here for values at or beyond the usual limits of such assays
HLA-B*83:01 = assay: IEDB peptide-MHC binding, purified MHC/competitive/fluorescence; filed as Kd, often an IC50 or EC50 that approximates it; ≥ and ≤ were set here for values at or beyond the usual limits of such assays; settings: source organism: Homo sapiens
HLA-A*01:01 [1] = assay: as above
HLA-A*29:02 = assay: as above; settings: source organism: Homo sapiens
HLA-B*45:06 = assay: as above; settings: source organism: Homo sapiens
HLA-B*15:42 = assay: as above; settings: source organism: Homo sapiens
HLA-B*40:01 = assay: as above
HLA-B*39:01 = assay: as above; settings: source organism: Escherichia coli
HLA-B*08:01 [2] = assay: as above; settings: source organism: Escherichia coli
HLA-A*01:01 [3] = assay: IEDB peptide-MHC binding, purified MHC/competitive/radioactivity; filed as Kd, often an IC50 or EC50 that approximates it; ≥ and ≤ were set here for values at or beyond the usual limits of such assays; settings: source organism: Dengue virus 4 Philippines/H241/1956
HLA-C*15:02 = assay: IEDB peptide-MHC binding, purified MHC/direct/fluorescence; filed as Kd, often an IC50 or EC50 that approximates it; ≥ and ≤ were set here for values at or beyond the usual limits of such assays
HLA-A*02:01 [4] = assay: IEDB peptide-MHC binding, purified MHC/competitive/fluorescence; ≥ and ≤ were set here for values at or beyond the usual limits of such assays
HLA-A*24:02 = assay: as above; settings: source organism: Zaire ebolavirus
HLA-B*08:01 [5] = assay: as above
HLA-B*07:02 = assay: IEDB peptide-MHC binding, purified MHC/competitive/fluorescence; filed as Kd, often an IC50 or EC50 that approximates it; ≥ and ≤ were set here for values at or beyond the usual limits of such assays
HLA-B*15:01 [6] = assay: as above
HLA-B*51:01 = assay: as above
HLA-A*03:01 [7] = assay: IEDB peptide-MHC binding, purified MHC/competitive/fluorescence; ≥ and ≤ were set here for values at or beyond the usual limits of such assays
HLA-A*11:01 = assay: as above; settings: source organism: Variola virus
HLA-C*05:01 = assay: IEDB peptide-MHC binding, purified MHC/direct/fluorescence; filed as Kd, often an IC50 or EC50 that approximates it; ≥ and ≤ were set here for values at or beyond the usual limits of such assays; settings: source organism: human gammaherpesvirus 4
HLA-C*06:02 = assay: as above
HLA-A*02:03 = assay: IEDB peptide-MHC binding, purified MHC/competitive/radioactivity; filed as Kd, often an IC50 or EC50 that approximates it; ≥ and ≤ were set here for values at or beyond the usual limits of such assays; settings: source organism: Vaccinia virus WR
HLA-A*02:01 [8] = assay: as above; settings: source organism: Vaccinia virus WR
HLA-A*02:02 = assay: as above; settings: source organism: Vaccinia virus WR
HLA-A*02:06 = assay: as above; settings: source organism: Vaccinia virus WR
HLA-B*15:01 [9] = assay: IEDB peptide-MHC binding, purified MHC/competitive/fluorescence; ≥ and ≤ were set here for values at or beyond the usual limits of such assays; settings: source organism: Vaccinia virus WR
HLA-B*18:01 = assay: IEDB peptide-MHC binding, purified MHC/competitive/fluorescence; filed as Kd, often an IC50 or EC50 that approximates it; ≥ and ≤ were set here for values at or beyond the usual limits of such assays; settings: source organism: Giardia lamblia ATCC 50803
HLA-B*57:01 [10] = assay: as above; settings: source organism: Giardia lamblia ATCC 50803
HLA-B*15:17 = assay: as above; settings: source organism: Giardia lamblia ATCC 50803
HLA-A*26:01 = assay: as above; settings: source organism: Giardia lamblia ATCC 50803
HLA-B*46:01 = assay: as above; settings: source organism: Giardia lamblia ATCC 50803
HLA-A*31:01 = assay: as above; settings: source organism: Giardia lamblia ATCC 50803
HLA-B*27:03 = assay: as above; settings: source organism: Giardia lamblia ATCC 50803
HLA-A*03:01 [11] = assay: as above; settings: source organism: Giardia lamblia ATCC 50803
HLA-A*02:12 = assay: IEDB peptide-MHC binding, purified MHC/direct/fluorescence; filed as Kd, often an IC50 or EC50 that approximates it; ≥ and ≤ were set here for values at or beyond the usual limits of such assays; settings: source organism: Orthohantavirus sangassouense
HLA-A*69:01 = assay: as above; settings: source organism: Orthohantavirus hantanense
HLA-A*02:01 [12] = assay: as above; settings: source organism: Orthohantavirus hantanense
HLA-A*02:19 = assay: as above; settings: source organism: Orthohantavirus sangassouense
HLA-A*02:11 = assay: as above; settings: source organism: Orthohantavirus sangassouense
HLA-B*58:01 = assay: as above; settings: source organism: Giardia lamblia ATCC 50803
HLA-B*57:01 [13] = assay: as above; settings: source organism: Giardia lamblia ATCC 50803
[14] = source organism: Zaire ebolavirus
[15] = source organism: human gammaherpesvirus 4
[16] = source organism: Shigella boydii CDC 3083-94
[17] = source organism: Sudan ebolavirus
[18] = source organism: Vaccinia virus WR
[19] = source organism: Giardia lamblia ATCC 50803

- Kd (HLA-C*12:03; source organism: Homo sapiens): ≤ 1 nM
Sequence: YQFTGIKKY

- Kd (HLA-B*83:01): ≥ 5000 nM
- Kd (HLA-A*01:01 [1]; source organism: Homo sapiens): ≥ 20000 nM
- Kd (HLA-A*29:02): ≥ 20000 nM
- Kd (HLA-B*45:06): ≥ 5000 nM
- Kd (HLA-B*15:42): ≥ 5000 nM
Sequence: STMRRMALR

Sequence: NELGVPFHL
- Kd (HLA-B*40:01; source organism: Influenza A virus (A/nt/60/1968(H3N2))): 2.1 nM

Sequence: HEYQGKAVL
- Kd (HLA-B*40:01; source organism: Bacillus anthracis str. A0488): 5.1 nM

Sequence: EEAKLFFQV
- Kd (HLA-B*40:01; source organism: Yersinia pestis Antiqua): 6.4 nM

- Kd (HLA-B*39:01): 37.7 nM
- Kd (HLA-B*08:01 [2]): 154 nM
- Kd (HLA-C*12:03; source organism: Escherichia coli MS 119-7): 99 nM
Sequence: FQRAIMNAM

Sequence: LLAKSVFNSLY
- Kd (HLA-A*01:01 [1]; source organism: Influenza A virus (A/X-31(H3N2))): 93 nM

Sequence: FTTNIWMKF
- Kd (HLA-A*01:01 [3]): 5160 nM
- Kd (HLA-C*15:02; source organism: dengue virus type 4): ≥ 20000 nM

Sequence: GLLIVKTVL
- IC50 (HLA-A*02:01 [4]; [14]): 294 nM
- IC50 (HLA-A*24:02): ≥ 105000 nM
- IC50 (HLA-B*08:01 [5]; [14]): ≥ 135000 nM

Sequence: LPFQNIHPITI
- Kd (HLA-B*07:02; source organism: Influenza A virus (A/duck/Bavaria/1/1977(H1N1))): 57.4 nM

- Kd (HLA-A*01:01 [1]; source organism: Escherichia coli O139:H28 str. E24377A): ≥ 20000 nM
Sequence: ITDMRNGFN

- Kd (HLA-B*40:01; source organism: Escherichia coli 536): 1030 nM
Sequence: LETCHRNAF

Sequence: YYFQSGNEI
- Kd (HLA-C*12:03; [15]): ≥ 20000 nM

Sequence: APSPYNSRF
- Kd (HLA-B*07:02; source organism: Influenza A virus): 7.1 nM

Sequence: TPAVCGPVI
- Kd (HLA-B*07:02; [16]): 23.8 nM
- Kd (HLA-B*15:01 [6]; [16]): ≥ 20000 nM
- Kd (HLA-B*51:01; [16]): 1860 nM

Sequence: FLRATTELR
- IC50 (HLA-A*02:01 [4]; [17]): 56200 nM
- IC50 (HLA-B*08:01 [5]; [14]): ≥ 87800 nM
- IC50 (HLA-A*03:01 [7]; [17]): 26100 nM

Sequence: ERQLAKAII
- IC50 (HLA-B*08:01 [5]; source organism: Vaccinia virus Copenhagen): ≥ 111000 nM

Sequence: NPRMFLAM
- Kd (HLA-B*07:02; source organism: Influenza A virus (A/Fort Monmouth/1/1947-mouse adapted(H1N1))): 372 nM

- Kd (HLA-C*15:02; source organism: Homo sapiens): 49 nM
Sequence: KTWGQYWQV

- Kd (HLA-B*40:01; source organism: Escherichia coli F11): 71.3 nM
Sequence: LEPRVFGWM

Sequence: AVARKHHTK
- IC50 (HLA-B*08:01 [5]; source organism: Variola virus): ≥ 436000 nM
- IC50 (HLA-A*03:01 [7]; source organism: Variola virus): 1460 nM
- IC50 (HLA-A*11:01): 471 nM

Sequence: ELRTFSILN
- IC50 (HLA-A*24:02): 30100 nM
- IC50 (HLA-B*08:01 [5]; [14]): ≥ 302000 nM

Sequence: GDIKASNIV
- IC50 (HLA-B*08:01 [5]; [18]): ≥ 298000 nM

Sequence: VTDEGTSSF
- Kd (HLA-C*05:01): ≤ 1 nM
- Kd (HLA-C*06:02; [15]): 332 nM

Sequence: VLPFDIKYI
- Kd (HLA-A*02:03): 9.68 nM
- Kd (HLA-A*02:01 [8]): 15 nM
- Kd (HLA-A*02:02): 135 nM
- Kd (HLA-A*02:06): 506 nM
- Kd (HLA-C*06:02; source organism: Vaccinia virus L-IPV): 3390 nM

Sequence: IEHALAHQL
- Kd (HLA-B*40:01; source organism: Salmonella enterica subsp. enterica serovar Typhi): 7.7 nM

Sequence: FMHEQGYSH
- IC50 (HLA-B*15:01 [9]): 14800 nM
- IC50 (HLA-A*02:01 [4]; [18]): 9720 nM
- IC50 (HLA-B*08:01 [5]; [18]): ≥ 301000 nM

Sequence: TMNSRYYLV
- Kd (HLA-B*18:01): ≥ 20000 nM
- Kd (HLA-B*57:01 [10]): ≥ 20000 nM
- Kd (HLA-B*15:17): ≥ 20000 nM
- Kd (HLA-B*15:01 [6]; [19]): ≥ 20000 nM
- Kd (HLA-A*26:01): ≥ 20000 nM
- Kd (HLA-B*46:01): ≥ 20000 nM
- Kd (HLA-A*31:01): 72.5 nM
- Kd (HLA-B*27:03): ≥ 20000 nM
- Kd (HLA-A*03:01 [11]): ≥ 20000 nM
- Kd (HLA-B*51:01; [19]): ≥ 20000 nM

Sequence: FIYGYLEPV
- Kd (HLA-C*12:03; source organism: Orthohantavirus): 12 nM
- Kd (HLA-A*02:12): ≤ 1 nM
- Kd (HLA-A*69:01): ≤ 1 nM
- Kd (HLA-A*02:01 [12]): ≤ 1 nM
- Kd (HLA-A*02:19): 2 nM
- Kd (HLA-A*02:11): ≤ 1 nM

Sequence: RTHEESLRL
- Kd (HLA-B*58:01): 1480 nM
- Kd (HLA-B*57:01 [13]): 2080 nM
- Kd (HLA-C*15:02; [19]): 50 nM
